From patent US20230088269A1 (ARGENX BVBA, published 2023)
Values belong to the binder of their own block, whether it stands above or below them.

How the values were obtained:
[1] = target: T1, recombinant human IL-22R (R&D Systems / Biotechne 2770-LR) (human, UniProt Q8N6P7 16-228); experiment: off-rate of Fab fragment; method not stated; Fab fragment; human IL-22R1
T1 construct: Bought soluble recombinant protein (said to be 25 kDa); also called hIL22R; IL-22R1
T1 sequence: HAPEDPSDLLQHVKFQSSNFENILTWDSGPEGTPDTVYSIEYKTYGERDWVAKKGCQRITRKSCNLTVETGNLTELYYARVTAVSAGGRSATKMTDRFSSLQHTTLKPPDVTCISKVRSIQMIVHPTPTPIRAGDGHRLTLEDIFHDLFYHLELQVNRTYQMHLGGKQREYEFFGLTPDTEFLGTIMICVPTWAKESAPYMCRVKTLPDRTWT

[2] = target: T2, recombinant mouse IL22R (monomeric, R&D Systems cat 4248-MR) (mouse, UniProt Q80XZ4 16-230); experiment: SPR (Biacore), purified Fab
T2 construct: extracellular domain; also called murine IL-22R; mIL22R
T2 sequence (looked up): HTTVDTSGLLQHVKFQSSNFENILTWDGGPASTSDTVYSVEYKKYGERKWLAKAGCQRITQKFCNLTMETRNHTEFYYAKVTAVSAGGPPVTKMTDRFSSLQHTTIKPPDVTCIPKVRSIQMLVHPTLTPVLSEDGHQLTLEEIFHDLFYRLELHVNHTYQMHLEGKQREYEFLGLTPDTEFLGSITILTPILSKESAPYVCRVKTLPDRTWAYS

[3] = target: T1, recombinant human IL-22R (R&D Systems / …); experiment: SPR (Biacore), purified Fab
[4] = target: T3, rhIL22R-Fc (rhesus IL22R ECD fused to human Fc) (rhesus monkey, UniProt G7MHN4 16-228); experiment: off-rate of Fab fragment; method not stated
T3 construct: also called rhesus IL-22R1
T3 sequence: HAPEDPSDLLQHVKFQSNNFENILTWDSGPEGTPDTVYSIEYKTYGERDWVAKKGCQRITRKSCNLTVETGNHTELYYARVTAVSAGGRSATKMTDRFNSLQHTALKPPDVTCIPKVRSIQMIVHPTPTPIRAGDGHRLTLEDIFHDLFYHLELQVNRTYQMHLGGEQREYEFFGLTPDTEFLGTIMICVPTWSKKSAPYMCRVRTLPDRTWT

[5] = target: T4, human IL-22R A209D mutant on BW cells (human, UniProt Q8N6P7 16-574); experiment: FACS, BW-hIL-22R mutant cells
T4 sequence: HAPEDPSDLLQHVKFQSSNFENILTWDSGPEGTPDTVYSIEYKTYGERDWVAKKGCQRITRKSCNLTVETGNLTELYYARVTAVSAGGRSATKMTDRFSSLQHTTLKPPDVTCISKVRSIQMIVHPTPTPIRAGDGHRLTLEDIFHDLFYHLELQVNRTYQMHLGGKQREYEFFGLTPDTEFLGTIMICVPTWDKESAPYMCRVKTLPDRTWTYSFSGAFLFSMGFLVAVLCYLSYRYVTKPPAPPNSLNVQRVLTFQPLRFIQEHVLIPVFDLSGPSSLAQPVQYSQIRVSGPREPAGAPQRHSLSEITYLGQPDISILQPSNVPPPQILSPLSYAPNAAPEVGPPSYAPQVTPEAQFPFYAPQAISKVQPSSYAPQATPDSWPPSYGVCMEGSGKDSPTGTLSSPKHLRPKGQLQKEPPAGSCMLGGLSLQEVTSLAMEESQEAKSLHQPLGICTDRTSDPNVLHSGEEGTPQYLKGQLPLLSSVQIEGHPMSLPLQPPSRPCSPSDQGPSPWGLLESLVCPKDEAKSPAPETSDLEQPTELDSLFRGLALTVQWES
Description: The binding of IL22R antibodies and of the benchmark antibody (280.346.TSY) to BW cells over-expressing various IL22R mutants was tested. The IL22R mutants have mutations of amino acids known to be involved in the IL-22/IL22R interaction. In this setup, the antibodies were biotinylated, added to the cells and binding of the antibody to IL22R was detected with labeled streptavidin by Flow cytometry (FACS).
FACS analysis was also carried out as described in Example 8.2 to study the binding of the germlined antibodies to various IL-22R mutants.

[6] = target: T1, recombinant human IL-22R (R&D Systems / …); experiment: SPR (Biacore), hIL22R on CM5 chip, mAb injected, 1:1 Langmuir
Description: (§1) The affinity of the 230C9 and 223G5 antibodies was measured using SPR ([…]). In brief, 250RU of human IL22R (Biotechne, 2770-LR) was coated onto a CM5 chip using standard methods (EDC coupling of IL22R at a concentration of 2 μg/ml in acetate buffer pH4.5). Then various concentrations of antibody were injected in HBSEP+ buffer (pH 7.4) for 2 minutes. The binding was monitored also during a 10 min washing (HBSEP+).

[7] = target: T1, recombinant human IL-22R (R&D Systems / …); experiment: SPR (Biacore), hIL22R on CM5 chip, mAb injected; rounded range told of 223G5 and 224C4
Description: as §1

[8] = target: T2, recombinant mouse IL22R (monomeric, R&D …); experiment: summary table of cross-reactivity, mAb, column m = mouse
[9] = target: T5, human IL-22R expressed on cells (BW-hIL22R, Baf3-hIL22R/IL20Rb, transfected HEK, primary human skin cells) (human, UniProt Q8N6P7 16-574); experiment: cell-based or functional assay
T5 sequence: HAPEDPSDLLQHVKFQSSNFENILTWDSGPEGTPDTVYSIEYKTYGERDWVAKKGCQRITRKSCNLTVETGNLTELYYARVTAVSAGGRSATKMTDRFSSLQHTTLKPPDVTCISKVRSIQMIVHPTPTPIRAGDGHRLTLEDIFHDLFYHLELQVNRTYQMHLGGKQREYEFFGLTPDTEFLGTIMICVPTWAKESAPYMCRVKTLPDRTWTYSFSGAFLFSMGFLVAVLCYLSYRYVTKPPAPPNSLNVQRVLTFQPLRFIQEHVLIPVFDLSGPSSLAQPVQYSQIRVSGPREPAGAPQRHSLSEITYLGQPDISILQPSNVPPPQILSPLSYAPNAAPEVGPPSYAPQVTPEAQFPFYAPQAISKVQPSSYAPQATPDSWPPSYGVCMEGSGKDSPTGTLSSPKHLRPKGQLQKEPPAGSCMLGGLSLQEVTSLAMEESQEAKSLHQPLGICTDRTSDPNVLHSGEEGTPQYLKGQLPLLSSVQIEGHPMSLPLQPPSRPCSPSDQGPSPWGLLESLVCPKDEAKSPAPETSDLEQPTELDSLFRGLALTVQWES

[10] = target: T5, human IL-22R expressed on cells …; experiment: cell-based or functional assay; remark: listed apart in the source
[11] = target: T5, human IL-22R expressed on cells …; experiment: cell-based or functional assay; remark: listed apart in the source
[12] = target: cynoIL22R_ECD-humanTM_humanICD chimera on transfected cells (cynomolgus monkey; human, UniProt Q8N6P7 229-574); experiment: cell-based or functional assay
[13] = target: rhesus IL22R ECD - human TM - human ICD chimera on transfected HEK cells (rhesus monkey; human, UniProt Q8N6P7 229-574); experiment: cell-based or functional assay
[14] = target: T5, human IL-22R expressed on cells …; experiment: cell-based or functional assay; remark: listed apart in the source
[15] = target: T5, human IL-22R expressed on cells …; experiment: cell-based or functional assay; remark: listed apart in the source
[16] = target: T6, cynomolgus monkey IL-22R in ex vivo skin biopsies (cynomolgus monkey, UniProt A0A2K5TKX9 16-573); experiment: cell-based or functional assay
T6 sequence: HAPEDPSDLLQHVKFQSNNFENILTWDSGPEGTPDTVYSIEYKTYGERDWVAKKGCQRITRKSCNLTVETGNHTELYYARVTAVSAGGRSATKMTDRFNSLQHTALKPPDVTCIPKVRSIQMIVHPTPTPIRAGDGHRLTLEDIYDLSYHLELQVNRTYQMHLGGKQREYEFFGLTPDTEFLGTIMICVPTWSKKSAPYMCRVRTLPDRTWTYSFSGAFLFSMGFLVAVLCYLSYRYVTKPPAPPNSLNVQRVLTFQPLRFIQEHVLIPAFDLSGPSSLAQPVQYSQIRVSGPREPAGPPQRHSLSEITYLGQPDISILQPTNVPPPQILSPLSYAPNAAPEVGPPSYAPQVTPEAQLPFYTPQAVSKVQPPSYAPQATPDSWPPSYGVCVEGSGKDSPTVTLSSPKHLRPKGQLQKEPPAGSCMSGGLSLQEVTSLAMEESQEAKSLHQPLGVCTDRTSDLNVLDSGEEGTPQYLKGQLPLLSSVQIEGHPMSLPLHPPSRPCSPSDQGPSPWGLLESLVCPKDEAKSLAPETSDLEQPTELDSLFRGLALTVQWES

[17] = target: T1, recombinant human IL-22R (R&D Systems / …); experiment: SPR (Biacore), mAb on chip, monomeric hIL22R injected, 1:1 Langmuir
Description: Because of the potential avidity effect observed when a bivalent molecule is used as a ligand during affinity measurement, a reverse experimental setup was tested. In this set-up, the antibodies were coated to 250RU using standard methods. Monomeric human IL22R was added at different concentrations, and the affinities calculated using the BIAevaluation software using a Langmuir 1:1 fitting are shown in Table 21 below.

koff [1]: 0.00122 s⁻¹
binding result [2]: no binding
koff [3]: 0.00088 s⁻¹
koff [4]: 0.0222 s⁻¹
B1: 166G8 Fab (Fab, V domains shown)
VH: QVQLVESGGGLVQPGDSLRLSCAASGFTFGSYFMSWVRQAPGKGPEWVSGIHISGGITYYLDSVKGRFTISRDNAKNTLYLQMNNLKPEDTAVYYCVTPPGPFKAHYNGMKYWGKGTLVTVSS
VL: NFMLTQPPSVSGTLGKTVTISCTGTSRDIGDYNYVSWYQQLPGLAPKLLIYKVNTRSSGTPDRFSGSKSGNTASLTISGLQSEDEADYYCASYRLYADYVFGGGTHLTVL
notes: VH family 5; purified llama Fab

binding result [5]: no binding
Kd [6]: 0.016 nM
koff [6]: 0.0001 s⁻¹
kon [6]: 6.6e+06 M⁻¹ s⁻¹
Kd [7]: 0.01 to 0.02 nM
B2: 223G5 mAb (antibody, human IgG1, lambda, N297Q, V domains shown)
VH: QVQLVESGGGLVQPGGSLRLSCAASGFTFSSYFMSWVRQAPGKGPEWVSGIHISGGITYYTDSVKGRFTISRDNAKNTLYLQMNSLRAEDTAVYYCVTPPGPFKAHYNGAKYWGKGTLVTVSS
VL: QSALTQPPSVSGSPGQSVTISCTGTSSDIGSYNYVSWYQQLPGKAPKLLIYEVNKRSSGVPDRFSGSKSGNTASLTISGLQAEDEADYYCASYRLYADYVFGGGTQLTVLG
notes: Germlined variant of 166G8; also called 223G5-N297Q

Further lines, the binder ahead of its results:

B3: 218A7 mAb (antibody, V domains shown)
VH: QVQLVESGGGLVQPGGSLRLSCAASGFTFSSYDMSWVRQAPGKGLEWVSSIYNDGSNTAYSDSVKGRFTISRDNAKNTLYLQMNSLKSEDTAVYYCAKVGFSGTYYSESWGQGTQVTVSS
VL: LPVLTQPSAVSVSLGQTARITCQGGYYAHWYQQKPGQAPVLVIYGQNNRPSGIPERFSGSGAGNTATLTISGAQAEDEAEYYCQSGSSSANAVFGGGTKLTVL
notes: VH family 4; light chain shuffled variant of 157A2, not germlined
binding result [8]: no binding
IC50 blocking IL-22 (pM), BW hIL22R proliferation [9]: 360 pM
IC50 blocking IL-22 (nM), BWhIL22R cell line [10]: 0.28 nM
Relative potency to 280.346.TSY (IL-22, BWhIL22R cell line) [10]: 2.5 fold

B4: 230C9 mAb (antibody, human IgG1, lambda, N297Q, V domains shown)
VH: QVQLVESGGGLVQPGGSLRLSCAASGFTFSSYDMNWVRQAPGKGLEWVSSIYNDASNTAYSDSVKGRFTISRDNSKNTLYLQMNSLRAEDTAVYYCAKVGFSGTYYSESWGQGTLVTVSS
VL: SYELTQPSSVSVALGQTARITCQGGYYAHWYQQKPGQAPVLVIYGQNNRPSGIPERFSGSGAGNTATLTISRAQAEDEADYYCQSGSSSSNAVFGGGTKLTVLG
notes: Germlined variant of 218A7; also called 230C9-N297Q; 230C9 N297Q
EC50 (nM), STAT3-reporter in HEK cells after human IL22, Human ECD [11]: 0.28 nM
EC50 (nM), STAT3-reporter in HEK cells after human IL22, Cyno ECD [12]: 0.57 nM
EC50 (nM), STAT3-reporter in HEK cells after human IL22, Rhesus ECD [13]: 0.48 nM
IC50 blocking IL-20 (nM), Baf3hIL22R/IL20Rb cell line; batch #1 [14]: 0.781 nM
IC50 blocking IL-20 (nM), Baf3hIL22R/IL20Rb cell line; batch #2 [14]: 0.567 nM
Relative potency to 280.346.TSY (IL-20); batch #1 [14]: 1.9 fold
Relative potency to 280.346.TSY (IL-20); batch #2 [14]: 2.6 fold
Kd [6]: 0.13 nM
koff [6]: 8.9e-05 s⁻¹
kon [6]: 680000 M⁻¹ s⁻¹
EC50, inhibition of CCL2 levels in primary human keratinocytes stimulated with IL-4, IL-13, IL-22 and IFN-gamma [15]: 0.1 nM
EC50, reduction of rhIL-22 induced DEFB4 mRNA in human ex vivo skin explants [15]: 4 nM
EC50, block of rhIL-22 down-regulation of FLG2 and LOR mRNA in cynomolgus skin biopsies [16]: 11 nM
Kd [17]: 0.22 nM
koff [17]: 0.00022 s⁻¹
kon [17]: 920000 M⁻¹ s⁻¹
IC50 blocking IL-22 (nM), BWhIL22R cell line [10]: 0.56 nM
Relative potency to 280.346.TSY (IL-22, BWhIL22R cell line) [10]: 1.2 fold
